Measured values as given in paper PMC11309785, “Vaccine priming of rare HIV broadly neutralizing antibody precursors in non-human primates” (Science (New York, N.Y.), 2024).

Biological target: T1, N332-GT5 trimer, C-terminal His-tagged (captured ligand of the SPR) (HIV-1 isolate BG505 (N332-GT5 …, stabilised))
T1 construct: HIV-1 envelope (Env) of isolate BG505, gp120 part of the germline-targeting trimer N332-GT5, co-expressed with furin; S18, coordinates in PDB 8T4K; HIV-1 envelope (Env) of isolate BG505, gp41 ectodomain part of the trimer N332-GT5; MD65 = MD39 stabilising mutations plus V505T, V513A, V518S, L520D; also called N332-GT5 WT; source: 293F cells, co-transfected with furin, purified (HIS-TRAP, SEC); …
Test: SPR; ProteOn XPR36, HC30M XanTec chip; His-tagged trimer (300 to 400 RU, 1 ug/mL) captured by immobilised rabbit anti-His-tag pAb, Fab flowed as analyte at 30 ul/min for 3 min, 5 min dissociation; 1x HBS-EP+ pH 7.4 with BSA 1 mg/ml; equilibrium or kinetic (Langmuir) fits; highest concentration 2x10^-5 M, approximate upper affinity limit 1.6x10^-11 M
Details: both partners purified

Binder	Kd
RM_N332_36 Fab (Fab, V domains shown, human Fab heavy chain constant region from the vector pFabCW; human lambda constant region from the vector pCW-CLig-hL2; Macaque variable regions on human constant regions; The deposited model may hold the Fv only; also called BG18 type I Fab with D3-41 in alternate reading frame; source: FreeStyle 293F or ExpiCHO cells, purified (CaptureSelect CH1-XL)) VH: QVTLKESGPALVKPTQTLTLTCTFSGFSLSTNYMGVDWIRQPPGKALEWLARIYWNDDKYYSTSLKSRLTISKDTSKNQVVLTMSNMDPVDTATYYCARVKLSVWGVLQFFEWSDYGLDSWGQGVVVTVSS VL: SYVLTQPPSVSVSPGQTARITCGADNIGSQSVHWYQQKSPQAPVLVISADTERPSGIPERFSGSNSGNTATLTISGVEAGDEADYYCQVWDSDSKYALFGGGTRLTVL	0.038 nM
RM_N332_32 Fab (Fab, V domains shown, human Fab heavy chain constant region from the vector pFabCW; human kappa constant region from the vector pCW-CLig-hk; Macaque variable regions on human constant regions; The deposited model may hold the Fv only; also called BG18 type I Fab with kappa light chain; source: FreeStyle 293F or ExpiCHO cells, purified (CaptureSelect CH1-XL)) VH: QLQLQESGPGLVKPSETLSLTCAVSGGSISDYCWNWIRQPPGKGLEWIGYIGGSSGSTYYNPSLKGRVTISADTSENRFSLKLSSVTAADTAVYYCARSPITVFGVVIFDEYTTGNLDLWGPGTPISISS VL: DIQMTQSPSSLSASVGDKVTITCHASQDISSWLAWYQQKPGKAPKPLIYYASSLQSGVPSRFSGSGSGTDYTLTITSLQPEDFATYYCQQYDDLPFTFGPGTKLDIK	0.081 nM
